In US20260028424A1 (GRANULAR THERAPEUTICS, published 2026):
Where a chain is given by its changes, count along the chain named.

T1: rhesus monkey CD203c His-tagged recombinant protein (rhesus monkey, UniProt F6TH66 31-874)
T1 construct: also called rhesus CD203c; not shown: His tag
T1 sequence: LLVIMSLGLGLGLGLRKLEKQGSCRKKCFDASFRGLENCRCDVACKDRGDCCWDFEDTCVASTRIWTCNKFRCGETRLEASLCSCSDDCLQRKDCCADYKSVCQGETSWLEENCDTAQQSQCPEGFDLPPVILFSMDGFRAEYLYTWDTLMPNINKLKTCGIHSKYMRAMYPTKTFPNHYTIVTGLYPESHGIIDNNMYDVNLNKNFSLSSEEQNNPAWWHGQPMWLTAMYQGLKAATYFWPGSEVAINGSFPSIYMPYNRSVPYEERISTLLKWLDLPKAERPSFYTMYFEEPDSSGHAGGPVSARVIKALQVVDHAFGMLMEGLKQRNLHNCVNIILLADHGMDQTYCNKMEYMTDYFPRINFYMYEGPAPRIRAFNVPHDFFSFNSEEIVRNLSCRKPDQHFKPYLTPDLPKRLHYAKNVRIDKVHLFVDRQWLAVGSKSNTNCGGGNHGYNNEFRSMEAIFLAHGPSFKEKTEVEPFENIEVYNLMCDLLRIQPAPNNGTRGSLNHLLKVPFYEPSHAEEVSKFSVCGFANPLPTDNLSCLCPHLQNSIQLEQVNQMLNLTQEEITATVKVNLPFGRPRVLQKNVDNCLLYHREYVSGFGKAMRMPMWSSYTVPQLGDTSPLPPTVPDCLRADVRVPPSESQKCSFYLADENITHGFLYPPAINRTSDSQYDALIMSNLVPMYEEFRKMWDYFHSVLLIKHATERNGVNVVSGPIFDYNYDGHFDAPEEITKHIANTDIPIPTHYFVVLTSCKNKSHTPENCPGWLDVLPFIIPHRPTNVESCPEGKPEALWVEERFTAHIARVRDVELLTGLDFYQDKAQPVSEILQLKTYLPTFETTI

T2: human CD203c His-tagged recombinant protein (human, UniProt O14638 49-875, limits assumed)
T2 construct: also called ENPP3; not shown: His tag
T2 sequence (looked up): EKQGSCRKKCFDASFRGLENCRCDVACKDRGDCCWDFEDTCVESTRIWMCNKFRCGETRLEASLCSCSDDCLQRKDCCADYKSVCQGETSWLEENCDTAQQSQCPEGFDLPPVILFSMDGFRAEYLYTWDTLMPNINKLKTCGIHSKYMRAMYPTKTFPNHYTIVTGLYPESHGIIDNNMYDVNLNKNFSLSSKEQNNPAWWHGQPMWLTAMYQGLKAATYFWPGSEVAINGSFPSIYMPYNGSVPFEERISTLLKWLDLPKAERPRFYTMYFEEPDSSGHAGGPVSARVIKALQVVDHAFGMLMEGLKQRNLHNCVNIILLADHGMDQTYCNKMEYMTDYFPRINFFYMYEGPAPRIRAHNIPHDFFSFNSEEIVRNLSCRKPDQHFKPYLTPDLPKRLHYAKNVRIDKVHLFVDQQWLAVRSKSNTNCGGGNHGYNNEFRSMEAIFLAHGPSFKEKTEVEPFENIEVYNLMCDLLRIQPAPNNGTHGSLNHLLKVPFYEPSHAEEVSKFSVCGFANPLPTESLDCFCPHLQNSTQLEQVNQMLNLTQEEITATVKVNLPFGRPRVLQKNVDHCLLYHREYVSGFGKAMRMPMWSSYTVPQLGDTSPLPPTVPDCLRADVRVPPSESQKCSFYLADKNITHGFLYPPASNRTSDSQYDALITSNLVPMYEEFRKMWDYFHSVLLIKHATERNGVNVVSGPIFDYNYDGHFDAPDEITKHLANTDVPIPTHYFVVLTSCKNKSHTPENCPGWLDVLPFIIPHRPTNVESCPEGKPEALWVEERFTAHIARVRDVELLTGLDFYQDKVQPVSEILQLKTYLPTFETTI

T3: human CD203c expressed on the surface of KU812 cells (human, UniProt O14638 1-875)
T3 construct: whole, on cells; also called cell-surface CD203c; cell surface CD203c on KU812 cells
T3 sequence (looked up): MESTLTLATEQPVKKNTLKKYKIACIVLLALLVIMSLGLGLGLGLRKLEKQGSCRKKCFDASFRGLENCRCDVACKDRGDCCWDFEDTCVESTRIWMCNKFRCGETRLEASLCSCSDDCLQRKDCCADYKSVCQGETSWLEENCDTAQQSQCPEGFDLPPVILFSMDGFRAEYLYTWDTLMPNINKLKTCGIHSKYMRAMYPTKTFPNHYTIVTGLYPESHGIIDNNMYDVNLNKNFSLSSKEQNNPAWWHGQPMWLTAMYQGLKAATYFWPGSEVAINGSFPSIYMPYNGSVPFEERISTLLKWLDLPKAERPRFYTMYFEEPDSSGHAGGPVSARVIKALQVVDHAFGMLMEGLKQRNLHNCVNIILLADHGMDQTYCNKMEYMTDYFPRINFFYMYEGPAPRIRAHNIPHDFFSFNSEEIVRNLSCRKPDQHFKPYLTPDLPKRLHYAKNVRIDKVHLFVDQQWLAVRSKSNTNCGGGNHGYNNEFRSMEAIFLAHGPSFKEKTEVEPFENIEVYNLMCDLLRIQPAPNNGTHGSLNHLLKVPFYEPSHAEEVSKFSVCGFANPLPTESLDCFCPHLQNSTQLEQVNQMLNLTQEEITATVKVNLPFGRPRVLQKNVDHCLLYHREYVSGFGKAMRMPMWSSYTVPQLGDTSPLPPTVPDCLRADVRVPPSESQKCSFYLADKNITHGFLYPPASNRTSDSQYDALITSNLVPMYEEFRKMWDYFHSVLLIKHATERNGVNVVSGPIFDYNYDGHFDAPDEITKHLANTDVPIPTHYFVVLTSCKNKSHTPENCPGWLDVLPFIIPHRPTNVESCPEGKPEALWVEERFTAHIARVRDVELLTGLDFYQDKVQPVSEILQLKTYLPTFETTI

B1: 12 (antibody, V domains shown)
VH: EVQLVQSGAEVKKPGESLKISCKGSGYRFTSYWIGWVRQMPGKGLEWMGIIYPGDSDTRYSPSFQGQVTISADKSISTAYLQWSSLKASDTAMYYCARKDYYYGIMDVWGQGTTVTVSS
VL: DIQMTQSPSSLSASVGDRVTITCRASQGIRTNLAWFQQKPGKAPKSLIYAASSLQSGVPSRFSGSGSGTDFTLTISSLQPEDFATYYCQQYNSYPRTFGGGTKVEIK
notes: also called variant 12; 12 VH domain
B2: 26 (antibody, V domains shown)
VH: B1 VH with T30A, Y32H, I50E, Y60I, G104Y, I105A
VL: B1 VL
notes: also called variant 26; 26 VH domain
B3: 10 (antibody, V domains shown)
VH: B1 VH with I105A
VL: B1 VL
notes: also called variant 10; 10 VH domain
B4: 13 (antibody, V domains shown)
VH: B1 VH with I105S
VL: B1 VL
notes: also called variant 13; 13 VH domain
B5: 11 (antibody, V domains shown)
VH: B1 VH with I105A, M106F
VL: B1 VL
notes: also called variant 11; 11 VH domain
B6: 18 (antibody, V domains shown)
VH: B1 VH with G104D, I105A, V108Y
VL: B1 VL
notes: also called variant 18; 18 VH domain
B7: 14 (antibody, V domains shown)
VH: B1 VH with I105A, M106L
VL: B1 VL
notes: also called variant 14; 14 VH domain
B8: 17 (antibody, V domains shown)
VH: B1 VH with G104N, I105A, D107P
VL: B1 VL
notes: also called variant 17; 17 VH domain
B9: 15 (antibody, V domains shown)
VH: B1 VH with I105T
VL: B1 VL
notes: also called variant 15; 15 VH domain
B10: 23 (antibody, V domains shown)
VH: B1 VH with T30G, I50E, D57K, G104Y, I105A
VL: B1 VL
notes: also called variant 23; 23 VH domain
B11: A5 (antibody, V domains shown)
VH: B1 VH with T30S, W33R, I50E, D57K, G104Y, I105A
VL: B1 VL
notes: also called variant A5; A5 VH domain
B12: C4 (antibody, V domains shown)
VH: B1 VH with T30G, I50D, D55N, G104Y, I105A
VL: B1 VL
notes: also called variant C4; C4 VH domain
B13: F6/MH1 common light chain bispecific (anti-CD203c F6 x anti-c-Kit MH1) (bispecific antibody, V domains shown)
VH 1: QVQLVQSGAEVKKPGASVKVSCKASGYTFTDYYMNWVRQAPGQGLEWMGRIYPGSGNTYYAQKFQGRVTMTRDTSTSTVYMELSSLRSEDTAVYYCARGVYYYDYWGQGTLVTVSS
VH 2: B1 VH with T30A, Y32N, I50E, D57N, G104Y, I105A
VL: B1 VL
notes: Knob-in-hole IgG1null bispecific with human Ckappa; also called F6/MH1 bispecific molecule
B14: bispecific pair with alternative common light chain VL1: MH1 VH / 2.7_1 VH / VL1 (bispecific antibody, V domains shown)
VH 1: B13 VH 1
VH 2: EVQLVESGPGLVKPSETLSLTCTVSGGSISSSSYYWGWIRQPPGKGLEWIGSMYYSGSTYHNPSLKSRVIISVDTSKNQFSLKLSSVTAADTAVYYCARHYITVAGIFDYWGQGTLVTVSS
VL: QSVLTQPPSASGTPGQRATISCRASQGIRTNLAWYQQVPGTAPKLLIYAASSLQSGVPSRFSGSKSGTSASLAISGLQSEDEADYYCQQYNSYPRTFGGGTKLTVL
notes: Format as tested (bispecific or separate IgGs) is not described beyond 'bispecific pairs'
B15: bispecific pair with alternative common light chain VL2: MH1 VH / 2.7_1.2 VH / VL2 (bispecific antibody, V domains shown)
VH 1: B13 VH 1
VH 2: B14 VH 2
VL: B14 VL with A49S, A50N, S51N, S52Q, L53R, Q54P, S59D
B16: bispecific pair with alternative common light chain VL4: MH1 VH / 2.14_1.2 VH / VL4 (bispecific antibody, V domains shown)
VH 1: B13 VH 1
VH 2: QVQLQESGPGLVKPSQTLSLTCTVSGGSISSGGYYWSWIRQHPGKGLEWIGIIYYSGSTYYNPSLKSRVTISVDTSKNQFSLKLNSVTAADTAVFYCARVAIVTTIPGGMDVWGQGTTVTVSS
VL: EIVLTQSPDFQSVTPKEKVTITCRASQGIRTNLAWYQQKPDQSPKLLIKYASQSFSGVPSRFSGSGSGTDFTLTINSLEAEDAATYYCQQYNSYPRTFGQGTKVEIK

Each binder was assayed against T1, rhesus monkey CD203c His-tagged … (assay: direct binding ELISA on rhesus CD203c, absorbance (blank corrected)).

binding result	Binder
binds	B1
binds	B2
binds	B3
binds	B4
binds	B5
binds	B6
binds	B7
binds	B8
binds	B9

What follows are binders tested against T2, human CD203c His-tagged recombinant … (assay: direct binding ELISA on human CD203c, absorbance (blank corrected)).

binding result	EC50 (read off the curve) [µg/mL]	Binder
binds	–	B10
–	~0.04	B1
binds	–	B2
binds	–	B3
binds	–	B4
binds	–	B5
binds	–	B6
binds	–	B11
binds	–	B12
binds	–	B7
binds	–	B8
binds	–	B9

The binders below were run against T3, human CD203c expressed on the surface … (assay: flow cytometry on KU812 cells, MFI (530/30 - 488nm) of live cells).

binding result	Binder
binds	B3
binds	B5
binds	B11
binds	B12
binds	B8
binds	B9

These binders were tested against c-Kit (antigen of the binding assay of FIG. 9A) (Homo sapiens (Human), UniProt P10721 26-524) (assay: plate binding assay on Human c-KIT, A450-A630 (ratio corrected)).
c-Kit (antigen of the binding assay of FIG. 9A), sequence (P10721 26-524 limits assumed): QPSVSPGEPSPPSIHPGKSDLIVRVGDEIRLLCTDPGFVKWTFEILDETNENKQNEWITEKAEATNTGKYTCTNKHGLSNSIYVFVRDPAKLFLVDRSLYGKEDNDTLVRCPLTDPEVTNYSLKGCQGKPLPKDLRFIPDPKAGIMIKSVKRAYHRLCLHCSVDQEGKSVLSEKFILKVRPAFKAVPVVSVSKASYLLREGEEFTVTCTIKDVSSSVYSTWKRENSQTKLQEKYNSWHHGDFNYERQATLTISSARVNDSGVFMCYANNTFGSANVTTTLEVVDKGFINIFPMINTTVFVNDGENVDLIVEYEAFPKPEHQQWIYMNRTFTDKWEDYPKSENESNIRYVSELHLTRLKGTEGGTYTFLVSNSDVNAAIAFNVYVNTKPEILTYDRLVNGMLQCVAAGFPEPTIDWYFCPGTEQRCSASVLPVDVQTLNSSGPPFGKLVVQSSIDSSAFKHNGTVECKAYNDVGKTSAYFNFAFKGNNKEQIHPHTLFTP

EC50 (read off the curve) [µg/mL]	Binder
~0.5	B13
~0.06	B14
~0.06	B15
~0.06	B16
